The source of these data is patent US20050079151A1, “Therapeutic agents for apoptosis-related diseases” (priority 1998, published 2005).

The test system of assay [1] is G401 cell lines derived from Wilms tumor. Briefly: Inhibitory effect on apoptosis induced by a carcinostatic (MTT method). As to conditions: MK 1, 10 or 100 ng/mL + cisplatin 100 μM, 12 hour culture, compared with the cisplatin treated group. In kind it is cell-based. The method, then:
Apoptosis was induced in G401 cell lines derived from Wilms tumor, infantile renal cancer, by a carcinostatic to examine the apoptosis-inhibitory effect of MK by the MTT method.
Five groups were prepared; the untreated group, the cisplatin (100 μM) treated group, and the MK (1, 10 or 100 ng/mL)+cisplatin treated groups.
G401 cells were suspended in the Dulbecco Modified Eagle Medium containing 10% fetal bovine serum (FBS) (10% FBS/DMEM) and seeded into a 96-well plate at 5000 cells/well. The plate was incubated in a CO2 incubator (37° C., 5% CO2; the same shall apply hereinbelow) so that the cells could attach to the plate.
The cells were washed with DMEM containing 0.1% FBS (0.1% FBS/DMEM) twice (hereafter, 0.1% FBS/DMEM was used for washing unless otherwise indicated), and cultured in 0.1% FBS/DMEM overnight. After culturing, MK was added to the MK treated groups at 1, 10 or 100 ng/ml. Each group was cultured for 6 hours. Six μl of 0.5 mg/ml cisplatin (100 μM) (Bristol-Myers Squib Company; Tokyo) was added to the cisplatin treated groups. Each group was cultured in 0.1% FBS/DMEM for 2 hours. […]
Fifteen μl of MTT reagent (5 mg/ml) (Wako Pure Chemical Laboratories; Osaka) were added to each well of the above-mentioned five groups and cultured for 4 hours. […] Absorbance (OD540-655) in each well was measured using a microplate reader.

A further assay deals with NG 108 cell lines. Kind of assay: Determination of DNA content in apoptosis-induced neurocytes (UV, PI staining, flow cytometry). Type of assay: cell-based, mouse. The settings on record: after UV exposure; for Ratio of cells at each cell cycle: G1: control group 7; for Ratio of cells at each cell cycle: G2/M: control group 9; for Ratio of cells at each cell cycle: S: control group 84. The method, then:
The culture flasks were coated with MK 100 ng/ml or MK 10 μg/ml. The flasks without a MK-coating (control) were also prepared.
NG 108 cell lines, hybrid cells of mouse neuroblastoma C1300 and glioma (Nelson P. G. et al.: Brain Res., 147: 245, 1978), were cultured in a Falcon 3110 cell culture flask (75 cm^2, BECTON DICKINSON) containing 10% FBS/DMEM until the cells were almost confluent. After culturing, the cells were exposed to ultraviolet light for […] (UV radiation amount: 60-100 J/m^2) to induce apoptosis.
The cells were collected by centrifugation (4° C., 1000 rpm, 10 min), and washed with 10 to 12 ml of sample buffer [1 g glucose/1 L PBS (−); filtered through a 0.22 μm filter] twice. The cells were adjusted to 1×10^6 to 3×10^6 cells/ml with the sample buffer, and 1 ml of them was centrifuged (4° C., 1000 rpm, 10 min) in a centrifuge tube (FALCON; 15×75 mm). The supernatant was discarded and the pellet was vigorously vortexed for 10 sec. Ethanol (70%) cooled with ice (1 ml) was added dropwise thereto and fixed at 4° C. overnight.
The cells fixed overnight were briefly vortexed and centrifuged (3000 rpm, 5 min). 70% Ethanol in the supernatant was discarded to 0.2 ml or less. The centrifuge tubes containing the cells were slowly vortexed, and 1 ml of propidium iodide (PI) stain was added thereto. The PI stain contained 0.5 ml of 20×PI solution, 0.1 ml of 100×RNase A solution, and 10 ml of the sample buffer. Twenty-fold dilution of PI was obtained by preparing 1 mg/ml of PI solution (SIGMA), filtering it through a 0.22 μm filter, and storing it at 4° C. in the dark. RNase A solution (100×) was prepared by adjusting RIBONUCLEASE A (Type I-A) (SIGMA) (10000 U/ml) to 125 mg/ml (80 U/mg).
The cells were lightly shaken, incubated for 30 min or longer at room temperature, and measured by flow cytometry.

A further assay concerns G401 cells. Briefly: Inhibitory effect on apoptosis induced by carcinostatic (Hoechst staining method). Type of assay: cell-based. As for the experimental part:
Five groups were prepared; the untreated group, the cisplatin (100 μM) treated group, the MK (1, 10, or 100 ng/mL)+cisplatin (100 μM) treated groups.
G401 cells (2×10^4) were seeded on a 3.5 cm-dish and cultured in 10% FBS/DMEM overnight. 10% FBS/DMEM was added to each dish and further cultured for 24 to 48 hours. The cells were washed twice and cultured in 0.1% FBS/DMEM overnight. MK was added to the MK treatment groups to 1, 10, or 100 ng/ml and cultured in 0.1% FBS/DMEM for 6 hours. Cisplatin was added to the cisplatin treatment groups to 100 μM and cultured in 0.1% FBS/DMEM for 2 hours. After culturing, the cells were washed three times. Then, human MK was added to the MK treatment groups to 1, 10, or 100 ng/ml and cultured in 0.1% FBS/DMEM for 12 or 24 hours.
The cells were fixed with a fixative (methanol:acetic acid=3:1) at room temperature for 10 min, and dried at room temperature for 30 min. Hoechst 33342 (ICN Biomedicals; Ohio, USA) was added thereto to stain the cells at room temperature for 10 to 30 min. The cells were washed with water three times, wind-dried, and mounted onto a fluorescent microscope (Olympus, BX60) and photographed. FIGS. 2A, 2B, and 2C show the untreated group, the cisplatin (100 μM) treated group, and the MK (100 ng/mL)+cisplatin (100 μM) treated group, which were all cultured for 12 hours. […]

B1: MK: midkine, a heparin-binding growth and differentiation factor; human MK protein (SEQ ID NO: 3; or recombinant, secreted by yeast) (protein, UniProt P21741 21-143, looked up)
Midkine: VAKKKDKVKKGGPGSECAEWAWGPCTPSSKDCGVGFREGTCGAQTQRIRCRVPCNWKKEFGADCKYKFENWGACDGGTGTKVRQGTLKKARYNAQCQETIRVTKPCTPKTKAKAKAKKGKGKD
Regarding B1, the “numbers of the surviving cells (MTT, absorbance OD540-655)” value in assay [1] is recorded as “increased numbers of the surviving cells in an MK concentration-dependent manner”. For the same molecule, in the assay on NG 108 cell lines (flask coated with MK 100 ng/ml), the “Ratio of cells at each cell cycle: G1” value was found to be 75%, the “Ratio of cells at each cell cycle: G2/M” value came out at 5% and the “Ratio of cells at each cell cycle: S” value came to 19%. Moreover, in the assay on NG 108 cell lines (flask coated with MK 10 μg/ml), the “Ratio of cells at each cell cycle: G1” value was determined as 67%, the “Ratio of cells at each cell cycle: G2/M” value stood at 24% and the “Ratio of cells at each cell cycle: S” value was 9%. For the same molecule, in the assay with NG 108 cell lines (in the presence of MK), the “change of the ratio of the cells at G1 phase compared with the control group” value is given as “increased by about tenfold” and the “change of the ratio of the cells at S phase compared with the control group” value is “decreased one eighth to one forth”. The “numbers of cells containing Hoechst 33342-stained nuclei with condensed chromatin and fragmented nuclei” value in the assay with G401 cells (MK 100 ng/mL + cisplatin 100 μM, 12 and 24 hours, compared to cisplatin alone) is reported as “remarkably decreased”. For the same molecule, the “Frequency of apoptotic cell death (Hoechst 33342)” value in the assay on G401 cells (MK 1, 10 or 100 ng/ml + cisplatin 100 μM, 12 and 24 hours culture, compared with the cisplatin treated group) is “decreased in a MK concentration-dependent fasion”.
